Drawing on PMC5095980, this text covers stoichiometry N for one substance.

For the test, the target named is Human lactoferrin (human). Kind of test: small angle neutron scattering (SANS); iron containing samples in solution, 7 °C: iron saturated Lf (L3770; 100 mM MES, 150 mM NaCl, D2O) at pD 5 and pD 7, and partially saturated Lf (L3770 in the EDTA buffer, pD 5); concentration series 2.5-50 mg/ml, form factor extrapolated to c = 0, aggregates modelled by a Guinier term added to the monomer form factor.

The stoichiometry N is a count of units in the complex or per binding partner. On to Human lactoferrin (natural protein), for which the stoichiometry N is 10 monomers.
